Ten variants from paper PMC3963918, “CCHCR1 Interacts Specifically with the E2 Protein of Human Papillomavirus Type 16 on a Surface Overlapping BRD4 Binding” (PLoS ONE, 2014) can be followed below.

The labels stand for the following.
B1: unnamed (parent)
chain 1: METLCQRLNVCQDKILTHYENDSTDLRDHIDYWKHMRLECAIYYKAREMGFKHINHQVVPTLAVSKNKALQAIELQLTLETIYNSQYSNEKWTLQDVSLEVYLTAPTGCIKKHGYTVEVQFDGDICNTMHYTNWTHIYICEEASVTVVEGQVDYYGLYYVHEGIRTYFVQFKDDAEKYSKNKVWEVHAGGQVILCPTSVFSSNEVSSPEIIRQHLANHPAATHTKAVALGTEETQTTIQRPRSEPDTGNPCHTTKLLHRDSVDSAPILTAFNSSHKGRINCNSNTTPIVHLKGDANTLKCLRYRFKKHCTLYTAVSSTWHWTGHNVKHKSAIVTLTYDSEWQRDQFLSQVKIPKTITVSTGFMSI
chain 2: MDQNNSLPPYAQGLASPQGAMTPGIPIFSPMMPYGTGLTPQPIQNTNSLSILEEQQRQQQQQQQQQQQQQQQQQQQQQQQQQQQQQQQQQQQQQQAVAAAAVQQSTSQQATQGTSGQAPQLFHSQTLTTAPLPGTTPLYPSPMTPMTPITPATPASESSGIVPQLQNIVSTVNLGCKLDLKTIALRARNAEYNPKRFAAVIMRIREPRTTALIFSSGKMVCTGAKSEEQSRLAARKYARVVQKLGFPAKFLDFKIQNMVGSCDVKFPIRLEGLVLTHQQFSSYEPELFPGLIYRMIKPRIVLLIFVSGKVVLTGAKVRAEIYEAFENIYPILKGFRKTT
B2: unnamed (parent)
chain 1: B1 chain 1
chain 2: KAGRAEAEGLRAALAGAEVVRKNLEEGSQRELEEVQRLHQEQLSSLTQAHEEALSSLTSKAEGLEKSLSSLETRRAGEAKELAEAQREAELLRKQLSKTQEDLEAQVTLVENLRKYVGEQVPSEVHSQTWELERQKLLETMQHLQEDRDSLHATAELLQVRVQSLTHILALQEEELTRKVQPSDSLEPEFTRKCQSLLNRWREKVFALMVQLKAQELEHSDSVKQLKGQVASLQEKVTSQSQEQAILQRSLQDKAAEVEVERMGAKGLQLELSRAQEARRRWQQQTASAEEQLRLVVNAVSSSQIWLETTMAKVEGAAAQLPSLNNRLSYAVRKVHTIRGLIARKLALAQLRQESCPLPPPVTDVSLELQQLREERNRLDAELQLSARLIQQEVGRAREQGEAERQQLSKVAQQLEQELQQTQESLASLGLQLEVARQGQQESTEEAASLRQELTQQQELYGQALQEKVAEVETRLREQLSDTERRLNEARREHAKAVVSLRQIQRRAAQEKERSQELRRLQEEARKEEGQRLARRLQELERDKNLMLATLQQEGLLSRYKQQRLLTVLPSLLDKKKSVVSSPRPPECSASAPVAAAVPTRESIKGSLSVLLDDLQDLSEAISKEEAVCQGDNLDRCSSSNPQMSS

The variants in one experiment derive from B1. Briefly: GPCA. The note with it: with partner chain of the complex shown;; read off a plot.
chain 1 N181T: the ratio to parent was found to be 0.95.
As to chain 1 E39A, the ratio to parent was found to be 1.2.
On the same count and under the same terms, the figure for chain 1 I73A is 0.97.
On the same count and under the same terms, the figure for chain 1 R37A is 1.1.
Same read-out and setting: next, chain 1 R27D: 0.91.

Variants of B2 are the subject of a further experiment. Nature of the experiment: GPCA. The note with it: with partner chain of the complex shown;; read off a plot.
Consider chain 1 R27D, for which the ratio to parent stood at 0.66.
The same measure, in the same setting: the figure for chain 1 R37A is 0.06; for chain 1 I73A it is 0.11.
The same measure, in the same setting: the figure for chain 1 N181T is 0.93; for chain 1 E39A it is 0.92.
